Tests used:
[1] = target: T1, interaction between CIITA and Flag-RFXANK (Homo sapiens, UniProt P33076); assay: CIITA/RFXANK interaction assay, competition with untagged RFXANK; assay type: binding; details: FIG. 7
T1 construct: made in house; host or cells: Sf9 insect cells (recombinant baculovirus); CIITA co-infected with a BirA baculovirus
T1 sequence (P33076 1-1130): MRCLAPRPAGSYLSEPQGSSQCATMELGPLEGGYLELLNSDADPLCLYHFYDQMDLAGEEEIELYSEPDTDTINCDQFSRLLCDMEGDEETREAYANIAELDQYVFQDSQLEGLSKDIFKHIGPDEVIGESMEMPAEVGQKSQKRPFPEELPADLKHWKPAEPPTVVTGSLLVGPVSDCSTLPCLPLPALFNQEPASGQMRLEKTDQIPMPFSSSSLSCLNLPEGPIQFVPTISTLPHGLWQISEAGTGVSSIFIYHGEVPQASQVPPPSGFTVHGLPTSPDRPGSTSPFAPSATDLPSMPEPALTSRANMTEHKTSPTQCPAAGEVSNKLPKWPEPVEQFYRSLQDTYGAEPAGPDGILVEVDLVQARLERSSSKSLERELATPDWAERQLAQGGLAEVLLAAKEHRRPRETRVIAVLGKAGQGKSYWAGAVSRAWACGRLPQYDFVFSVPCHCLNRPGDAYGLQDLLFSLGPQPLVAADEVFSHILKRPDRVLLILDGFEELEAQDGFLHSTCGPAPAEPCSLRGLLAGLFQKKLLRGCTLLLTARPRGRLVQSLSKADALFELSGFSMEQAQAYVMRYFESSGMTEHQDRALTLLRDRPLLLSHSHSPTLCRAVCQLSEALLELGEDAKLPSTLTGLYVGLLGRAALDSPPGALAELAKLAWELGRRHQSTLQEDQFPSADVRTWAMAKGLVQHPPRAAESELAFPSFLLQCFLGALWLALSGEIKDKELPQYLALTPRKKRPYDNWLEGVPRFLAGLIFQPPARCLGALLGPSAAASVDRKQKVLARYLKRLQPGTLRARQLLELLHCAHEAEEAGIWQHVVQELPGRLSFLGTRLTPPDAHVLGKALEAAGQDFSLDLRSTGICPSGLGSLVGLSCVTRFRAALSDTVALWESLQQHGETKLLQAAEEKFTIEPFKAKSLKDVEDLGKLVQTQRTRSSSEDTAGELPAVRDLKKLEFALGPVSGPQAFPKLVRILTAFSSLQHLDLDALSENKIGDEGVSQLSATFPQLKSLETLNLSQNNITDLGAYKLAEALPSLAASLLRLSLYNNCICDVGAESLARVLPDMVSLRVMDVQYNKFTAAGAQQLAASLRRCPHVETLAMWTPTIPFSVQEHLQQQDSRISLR
Procedure: Plasmids. The CIITA gene sequence was cloned into a modified pBAC-2 cp vector (Novagen) with a biotinylation tag inserted at the 5′ end of the gene. The RFXANK gene sequence containing a Flag tag at its N-terminus was cloned into a pFBHT vector (Invitrogen). These plasmids were used to generate recombinant baculoviruses according to standard procedures. Protein production: Sf9 cells grown in SF-900II medium (Invitrogen) were infected at MOI of 10 for 72 h before harvesting. To obtain in vivo biotinylated CIITA, Sf9 cells were co-infected with an E. coli biotin ligase expressing baculovirus (BirA gene) at a MOI of 1. Protein were purified using metal chelating affinity chromatography on HiTrap chelating column (Pharmacia). Purified fractions were pooled and quantified using ESL protein quantification kit (Roche) and the extent of CIITA biotinylation was estimated by pulldown experiments with Streptavidin-coated magnetic beads followed by PAGE analysis.
Assay. […] Wells were washed 5 times with 200 μl of wash solution (PBS; 0.05% Tween 20) and the adequate substrates for HRP were added to the well for either colorimetry, fluorescence or luminescence detection. […]

[2] = target: T2, Biotinylated-CIITA (UniProt P33076 1-1130, biotin on the biotinylation tag (in vivo biotinylation by co-expressed E. coli biotin ligase BirA; level close to 100%)); assay: solid-phase plate assay: biotinylated CIITA on a streptavidin well, Flag-RFXANK detected with M2:HRP, colorimetric; assay and negative control each performed 48 times
T2 construct: Made in Sf9 cells from a modified pBAC-2cp baculovirus vector; also called recombinant biotinylated-CIITA; not shown: biotinylation tag inserted at the 5' end of the gene
T2 sequence (looked up): T1 sequence (P33076 1-1130)
Procedure: Assay. Biotinylated-CIITA (0.5 μg) and 0.8 μg of Flag-RFXANK in 100 μl of assay buffer (50 mM Hepes pH7.8; 10% glycerol; 5 mM MgCl₂; 0.1 mM EDTA; 0.01% NP-40; 200 mM KCl; 0.5% BSA; 0.1% Tween 20; 2 mM DTT) were incubated in a streptavidin-coated microwell for 2 h at room temperature. Wells containing no protein, only biotinylated CIITA or Flag RFXANK were included as controls. Wells were washed 5 times with 200 μl of wash solution (PBS; 0.05% Tween 20). 100 μl of Assay Buffer containing 0.5 μg/ml M2:HRP antibody (Sigma) was added to each well and incubated for 1 h at room temperature. Wells were washed 5 times with 200 μl of wash solution (PBS; 0.05% Tween 20) and the adequate substrates for HRP were added to the well for either colorimetry, fluorescence or luminescence detection.
To examine its reproducibility, the assay and negative control were performed 48 times. […] Increasing amounts of RFXANK were added to the wells containing biotinylated CIITA and Flag-RFXANK in the same assay as described above.

reduction of signal of the CIITA/Flag-RFXANK interaction ([1]; equivalent amounts of Flag-RFXANK and RFXANK): approximately 50%
signal to background ratio (S/B) [2]: 11.8
B1: RFXANK having an N-terminal Flag tag (Flag-RFXANK) (other, UniProt O14593 1-260, looked up)
chain: MELTQPAEDLIQTQQTPASELGDPEDPGEEAADGSDTVVLSLFPCTPEPVNPEPDASVSSPQAGSSLKHSTTLTNRQRGNEVSALPATLDSLSIHQLAAQGELDQLKEHLRKGDNLVNKPDERGFTPLIWASAFGEIETVRFLLEWGADPHILAKERESALSLASTGGYTDIVGLLLERDVDINIYDWNGGTPLLYAVRGNHVKCVEALLARGADLTTEADSGYTPMDLAVALGYRKVQQVIENHILKLFQSNLVPADPE
notes: not shown: Flag tag at the N-terminus
competition of Flag-RFXANK for binding to CIITA ([1]; increasing amounts of RFXANK added to wells containing biotinylated CIITA and Flag-RFXANK): specifically competed by RFXANK for binding to CIITA in a dose-dependent manner
